Positions count from the first letter of the chain named.
B1: 1F5-IgG (antibody, V domains shown)
VH: QVQLVESGGGVVQPGRSLRLSCAASGFTFSSYDMHWVRQAPGKGLEWVAVIWYDGSNKYYADSVKGRFTISRDNSKNTLYLQMNSLRAEDTAVYYCARGSGNWGFFDYWGQGTLVTVSS
VL: DIQMTQSPSSLSASVGDRVTITCRASQGISRWLAWYQQKPEKAPKSLIYAASSLQSGVPSRFSGSGSGTDFTLTISSLQPEDFATYYCQQYNTYPRTFGQGTKVEIK
B2: mAb077-Fab (Fab, V domains shown)
VH: EVQLVESGGGLVQPGGSLRLSCAASGFTFSGYGIHWVRQAPGKGLEWIGWINPNRGSTKYAQKFQGRVTISRDNSKNTLYLQLNSLRAEDTAVYYCARDPGYTWYFDVWGQGTLVTVSS
VL: DIQLTQSPSSLSASVGDRVTITCRASQDISSDLAWYQQKPGKAPKLLIYAASTLQSGVPSRFSGSGSGTDFTLTISSLQPEDFATYYCQQRDAWPPTFGQGTKVEIK
notes: only the variable domains are tied to the Fab; also called mAb077 Fab fragment; mAb77
B3: 077N74T (antibody, V domains shown)
VH: B2 VH with N74T
VL: DIQLTQSPSSLSASVGDRVTITCRASQDISSDLAWYQQKPGKAPKLLIYAASTLQSGVPSRFSGSGSGTDFTLTISSLQPEDFATYYCQQRDAWPPTFGQGTKVEIKR
notes: The light chain is the same as in mAb077; also called mutant molecule 077N74T; 077N74T antibody
B4: mAb077-IgG (antibody, V domains shown)
VH: B2 VH
VL: B3 VL
notes: also called mAb77

Assays:
Human CD27-His = target: T1, Human CD27-His (human, UniProt P26842 21-192); experiment: BLI (Octet RED96), 1:1 Langmuir fit; format for IgG not described
T1 construct: also called CD27-His (Sino Biological #10039-H08B1); not shown: His tag
T1 sequence (looked up): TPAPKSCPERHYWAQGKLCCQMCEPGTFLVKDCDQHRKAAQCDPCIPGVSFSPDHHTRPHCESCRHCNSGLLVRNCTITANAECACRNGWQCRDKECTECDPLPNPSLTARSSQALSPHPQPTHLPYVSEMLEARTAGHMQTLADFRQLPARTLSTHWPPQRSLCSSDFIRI

Macaca CD27-Fc = Macaca CD27-Fc (Macaca); experiment: as above
Human CD27-HisFc [1] = target: T2, Human CD27-HisFc (human, UniProt P26842 21-192); experiment: BLI (Octet RED96), CD27-HisFc captured on AHC sensor, Fab in solution, 1:1 Langmuir fit
T2 construct: Bought reagent; also called CD27-HisFc (Sino Biological #10039-H03H); human CD27-HisFc fusion protein; not shown: His tag and Fc
T2 sequence (looked up): T1 sequence (looked up)
From the text: The antibody Fab fragment of each unique sequence with addition of histidine tag at its C-terminus was overexpressed using E. coli expression system, and then purified by Ni-NTA affinity resin. […] The collected data was processed by Data Acquisition 7.1 software and fitted to a 1:1 Langmuir model curve. The antibody mAb077 with the best binding capacity was obtained by screening for further analysis and development experiments.

[2] = target: T3, human CD27-his antigen (Yiqiao Shenzhou #10039-H08H) (human, UniProt P26842 21-192); experiment: SPR (Biacore T200), antibody captured on protein A chip, CD27-his as analyte, 1:1 Langmuir fit
T3 construct: Bought reagent; also called huCD27-his (Sino Biological); not shown: His tag
T3 sequence (looked up): T1 sequence (looked up)
From the text: The protein A biosensor chip was used to affinity capture the antibody molecule to be tested, and then the human CD27-his antigen (Yiqiao Shenzhou #10039-H08H) of various gradient concentrations was flowed on the surface of the chip, and the reaction signal was detected in real time with the Biacore T200 instrument to obtain the association and dissociation curve. After the dissociation of each experimental cycle was completed, the biosensor chip was washed and regenerated with glycine-hydrochloric acid regeneration solution (pH 1.5). BIAevaluation version 4.1 and GE software were used to fit the data with a (1:1) Langmuir model, the affinity values were obtained as shown in the table below. The affinity of the mutant molecule 077N74T is slightly higher than that of the original mAb077 molecule but there is no significant difference.

Murine CD27-HisFc = target: T4, Murine CD27-HisFc (murine, UniProt P41272 24-182, limits assumed); experiment: BLI (Octet RED96), 1:1 Langmuir fit; format for IgG not described
T4 construct: not shown: His tag and Fc
T4 sequence (looked up): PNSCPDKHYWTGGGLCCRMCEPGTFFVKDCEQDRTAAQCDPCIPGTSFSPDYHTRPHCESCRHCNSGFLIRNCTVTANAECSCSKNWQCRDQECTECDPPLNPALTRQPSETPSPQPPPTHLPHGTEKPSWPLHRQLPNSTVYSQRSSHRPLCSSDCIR

Human CD27-HisFc [3] = target: T2, Human CD27-HisFc; experiment: as above

Kd (Macaca CD27-Fc) [nM]	koff (Macaca CD27-Fc) [s⁻¹]	kon (Macaca CD27-Fc) [M⁻¹ s⁻¹]	Kd [2] [nM]	koff [2] [s⁻¹]	kon [2] [M⁻¹ s⁻¹]	further results	Binder
2.13	0.000243	114000	–	–	–	Kd (Human CD27-His): 1.39 nM; koff (Human CD27-His): 9.15e-05 s⁻¹; kon (Human CD27-His): 65800 M⁻¹ s⁻¹	B1
–	–	–	–	–	–	Kd (Human CD27-HisFc [1]): 4.08 nM; koff (Human CD27-HisFc [1]): 0.00121 s⁻¹; kon (Human CD27-HisFc [1]): 296000 M⁻¹ s⁻¹	B2
–	–	–	0.261	6.75e-05	259000	–	B3
0.562	4.26e-05	75800	0.335	8.34e-05	249000	Kd (Murine CD27-HisFc): 0.0304 nM; koff (Murine CD27-HisFc): 1.33e-05 s⁻¹; kon (Murine CD27-HisFc): 438000 M⁻¹ s⁻¹; Kd (Human CD27-HisFc [3]): 0.137 nM; koff (Human CD27-HisFc [3]): 2.17e-05 s⁻¹; kon (Human CD27-HisFc [3]): 158000 M⁻¹ s⁻¹	B4

— patent publication US20210009706A1 (JIANGSU HENGRUI MEDICINE, published 2021)
